Assay results from patent publication US7390643B2, “Geranyl diphosphate synthase molecules, and nucleic acid molecules encoding same” (Washington State University Research Foundation, priority 2002, dated 2008).

Substrate: C=C(C)CCO[P@@](=O)(O)OP(=O)(O)O
Assay: Turnover rate of heterotetrameric Mentha GPP synthase (comparison)
Assay type: biochemical
Conditions: other: assuming two functional active sites

B1: Mentha GPP synthase, heterotetrameric (dimer of heterodimers) (Mentha x piperita) (protein)
chain: MSALVNPVAKWPQTIGVKDVHGGRRRRSRSTLFQSHPLRTEMPFSLYFSSPLKAPATFSVSAVYTKEGSEIRDKDPAPSTSPAFDFDGYMLRKAKSVNKALEAAVQMKEPLKIHESMRYSLLAGGKRVRPMLCIAACELVGGDESTAMPAACAVEMIHTMSLMHDDLPCMDNDDLRRGKPTNHMAFGESVAVLAGDALLSFAFEHVAAATKGAPPERIVRVLGELAVSIGSEGLVAGQVVDVCSEGMAEVGLDHLEFIHHHKTAALLQGSVVLGAILGGGKEEEVAKLRKFANCIGLLFQVVDDILDVTKSSKELGKTAGKDLVADKTTYPKLIGVEKSKEFADRLNREAQEQLLHFHPHRAAPLIALANYIAYRDN
notes: probably E. coli, C-terminal His8 tag, transit peptide deleted
kcat: 2.4 s⁻¹
